Laboratory results as given in the supplement of paper PMC9170038.

Tested on: MS2 coat protein
Assay: apparent KD of MS2 coat protein; designed switch direction (-1 OFF switch, 1 ON switch): -1; higher = weaker reporter binding
How it was run: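 SNAP-549-labelled MS2 coat protein was titrated, doubling from 0.7 or 1.5 nM to 3 µM, over designed RNA switches transcribed on Illumina chips by stalled E. coli RNA polymerase. Runs were done without input, with 200 uM small-molecule ligand, or with an oligonucleotide input. Apparent KD is the per-design median over clusters of curve-fitted normalised fluorescence.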

[1] = Eterna round: R95, input ligand: FMN 200 uM
[2] = Eterna round: R95, input ligand: microRNA oligo, concentration not stated
[3] = Eterna round: R95, input ligand: none
[4] = input ligand: microRNA oligo, concentration not stated

Row | Sequence | apparent KD of MS2 coat protein [2] | apparent KD of MS2 coat protein (input ligand: FMN 200 uM) | apparent KD of MS2 coat protein (input ligand: none) | other results
1 | GGUACUAACACGAGAGUGUUAGUACAAUAAGCUUGUGUUACAUGAGGAUCACCCAUGUCCUCAUAAGCUCGUCUUAU [Mat - Sensor v3 - Turn-off var 2 - D57] (puzzle: Sensor v3, turn-off variant 2) | 0.0308 µM |  |  | apparent KD of MS2 coat protein [1]: 0.107 µM; apparent KD of MS2 coat protein [3]: 0.124 µM
2 | UGGCUGCUCAGGGAGUGUGACAUGAGGAUCACCCAUGUGGUAGUAAGGAACAAGCUUUUUGCACGUACUUAUGGGUC [JR_SV3TOV1_Sub010] (puzzle: Sensor v3, turn-off variant 1) | 0.204 µM |  |  | apparent KD of MS2 coat protein [1]: 0.268 µM; apparent KD of MS2 coat protein [3]: 0.375 µM
3 | UUUAUGUGAGGAUAUAGUACUCCUUCUAUUAUUAUUGAGUACUAGAAGGCACAUGAGGAUCACCCAUGUAGUAC [Ex4 - 3 - 37] (puzzle: Exclusion 4) | 0.0243 µM |  |  | 
4 | UUGUUUUCCGCAGGAUAUGCUCCUCUAUUACUAGCAGAAGGGCGUUGAACAUGAGGAUCACCCAUGUAUGUAAUUGCUUAUUGC [JR_ExcNG1_Sub074] (Eterna round: R96, puzzle: Exclusion NG 1) |  | 0.0193 µM | 0.0244 µM | apparent KD of MS2 coat protein [4]: 0.0175 µM
5 | GGUGCGUUUGUGAGGAUAUGCUGGUCCUUGGAUCUGCAGAAGGCACAUGAGGAUCACCCAUGUGGUGUCGUACC [salish99_Bmod_Ex4_036] (puzzle: Brourd's mod of Exclusion 4) | 0.208 µM |  |  | 
6 | UUUUACCGAGGAUAUACAUAUAAAUAAUAAUCCUCAUUAUUACAUGAGGAUCACCCAUGUAGAAGGCGGAUUUU [Mat - Exclusion 2 - Mod of Hog - D88] (puzzle: Exclusion 2) | 0.0963 µM |  |  | 
7 | UCAGGAGCAGGAUAUGCAAUCGUGCUUCGGCACGUAAGGUCACAUGAGGAUCACCCAUGUAGAAGGGCUCCUGA [E2/4-D2] (Eterna round: R97, puzzle: Exclusion 2) |  | 0.0384 µM | 0.0185 µM | 
8 | AGUAUAAUGUACGUGCACCACUUACAUGAGGAUCACCCAUGUUAGGAUAUCGAGCCUUUCUGGCUCGAGAAGGGACUCUUCGGG [Eternabot solution 18] (Eterna round: R96, puzzle: Exclusion NG 3) |  | 0.0332 µM | 0.0291 µM | apparent KD of MS2 coat protein [4]: 0.0229 µM
9 | ACAUGAGGAUCACCCAUGUAAUCAUGAUGGCUGAUGUAGAGGUAGGAUAUGAGUGGCUUUCUAUCUCAGAAGGACCAAGACUGG [Deportation 39 - Jieux - Exclusion NG 3] (Eterna round: R96, puzzle: Exclusion NG 3) |  | 0.029 µM | 0.0273 µM | apparent KD of MS2 coat protein [4]: 0.0216 µM
10 | UUAAUGUGAGGAUAUCAAGUGUGAUAGAGUAAUGGUAAAUAUGAGAAGGCACAUGAGGAUCACCCAUGUUCUUC [Mat - Exclusion 4 - Mod of JL - D59] (puzzle: Exclusion 4) | 0.014 µM |  |  | 
11 | ACAUGAGGAUCACCCAUGUACACGUAAUGGCUCAUGUAGAGUGAGGAUAUGUGAGACGAACGAGCACAGAAGGCACAAGACUGG [Deportation 11 - Jieux - Exclusion NG 3] (Eterna round: R96, puzzle: Exclusion NG 3) |  | 0.0361 µM | 0.0454 µM | apparent KD of MS2 coat protein [4]: 0.0218 µM
12 | GCCUCACUUGAGGAUCACCCAAGUCAGGAUAUCUACAGGCCGGCCAUACCAGCCUGCAAGAGAAGGGACUCUAA [Isriqu] (Eterna round: R97, puzzle: Exclusion 1) |  | 0.245 µM | 0.0323 µM | 
13 | UUUUAGCAAGGAUAUACAUUUUUUUUAUUAUCCUCAUUAUUACAUGAGGAUCACCCAUGUAGAAGGUGCAUUUU [My Design] (puzzle: Exclusion 2) | 0.0367 µM |  |  | 
14 | CUCAUGUGAGGAUAUGUGAUCAACCUUCUAUAUAGAUGAUGACAGAAGGCACAUGAGGAUCACCCAUGUAGAUC [Ex4 - 3 - 19] (puzzle: Exclusion 4) | 0.0379 µM |  |  | 
15 | GUAAAGUGAGGAUAUGGUAAAUUAAUUAUUAAUUAAUUAAUCCAGAAGGCACAUGAGGAUCACCCAUGUAUAUG [Mat - Exclusion 4 - D88] (puzzle: Exclusion 4) | 0.03 µM |  |  | 
